Measurements as given in publication PMC11008285 (Cell reports, 2024).

Target: the molecule itself

B1: full-length CARD9 (natural protein, UniProt Q9H257 1-536, looked up)
chain: MSDYENDDECWSVLEGFRVTLTSVIDPSRITPYLRQCKVLNPDDEEQVLSDPNLVIRKRKVGVLLDILQRTGHKGYVAFLESLELYYPQLYKKVTGKEPARVFSMIIDASGESGLTQLLMTEVMKLQKKVQDLTALLSSKDDFIKELRVKDSLLRKHQERVQRLKEECEAGSRELKRCKEENYDLAMRLAHQSEEKGAALMRNRDLQLEIDQLKHSLMKAEDDCKVERKHTLKLRHAMEQRPSQELLWELQQEKALLQARVQELEASVQEGKLDRSSPYIQVLEEDWRQALRDHQEQANTIFSLRKDLRQGEARRLRCMEEKEMFELQCLALRKDSKMYKDRIEAILLQMEEVAIERDQAIATREELHAQHARGLQEKDALRKQVRELGEKADELQLQVFQCEAQLLAVEGRLRRQQLETLVLSSDLEDGSPRRSQELSLPQDLEDTQLSDKGCLAGGGSPKQPFAALHQEQVLRNPHDAGLSSGEPPEKERRRLKESFENYRRKRALRKMQKGWRQGEEDRENTTGSDNTDTEGS
B1 was tested, and the “stoichiometry N” value was 4.
